Changes are numbered by the printed parent chain.
Assays:
[1] = biological target: T1, human cannabinoid receptor type 1 (CB1) (human, UniProt P21554 1-472); assay: flow cytometry, single point at 30 ug/mL antibody on CHO-huCB-1 cells
T1 construct: DiscoverX cAMP Hunter CHO-K1 CNR1 Gi cells for cAMP and pERK assays; also called huCB1; huCB-1

[2] = biological target: T1, human cannabinoid receptor type 1 (CB1); assay: FACS on CHO-huCB-1 cells, single concentration 30 ug/mL
[3] = biological target: T1, human cannabinoid receptor type 1 (CB1); assay: cell-based or functional assay
[4] = biological target: T1, human cannabinoid receptor type 1 (CB1); assay: FACS, titration on CB1 over-expressing CHO cells
Protocol: (§1) Antibody binding was tested in a fluorescence activated cell sorting (FACS)-based assay for the ability of the mouse anti-CB1 antibodies to bind parental CHO cells, human CB-1 overexpressing CHO cells and mouse CB-1 overexpressing CHO cells to obtain binding curves and EC50 values. The three cell lines were harvested, washed and dispensed at 1×10⁵ cells per well of a v-bottomed 96-well polycarbonate FACS plates (Corning, Corning, N.Y., Cat. No. 3357) in 50 μl of FACS buffer (1×PBS/2 mM EDTA and 1% FBS (ThermoFisher Scientific, Anaheim, Calif.; Cat. No. 10438-026). Serial dilutions of the antibodies were prepared at 2× concentrations starting at 200 nM and serially diluted 3-fold. The titrated antibodies were added to the plates containing the three different cell lines (parental, human and mouse CB-1 CHO cells) and incubated at 4° C. for 1 hour. The plates were washed 3× with FACS buffer. […] None of the eight functional antibodies tested were mouse cross reactive (FIG. 3).

mouse CB-1 = biological target: T2, mouse CB-1 (mouse, UniProt P47746 1-473); assay: flow cytometry on CHO-Mouse CB1 cells, 3-fold antibody titration from 200 nM
T2 construct: whole, on cells; also called moCB1; moCB1-CHO cells
T2 sequence (P47746 whole entry): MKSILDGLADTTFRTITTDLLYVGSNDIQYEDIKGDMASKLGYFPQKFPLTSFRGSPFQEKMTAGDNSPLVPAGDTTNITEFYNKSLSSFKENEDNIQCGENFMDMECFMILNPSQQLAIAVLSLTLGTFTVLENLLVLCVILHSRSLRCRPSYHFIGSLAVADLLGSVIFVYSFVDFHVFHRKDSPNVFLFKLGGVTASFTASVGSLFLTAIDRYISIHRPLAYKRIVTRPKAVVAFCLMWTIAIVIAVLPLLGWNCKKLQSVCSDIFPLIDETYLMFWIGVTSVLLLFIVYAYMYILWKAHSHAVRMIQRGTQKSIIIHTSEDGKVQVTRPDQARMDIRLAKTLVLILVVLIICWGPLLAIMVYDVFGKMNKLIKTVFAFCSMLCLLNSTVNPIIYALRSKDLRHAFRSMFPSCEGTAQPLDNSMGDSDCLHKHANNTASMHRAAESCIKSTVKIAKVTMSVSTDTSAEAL
Protocol: as §1

T1 sequence (P21554 whole entry): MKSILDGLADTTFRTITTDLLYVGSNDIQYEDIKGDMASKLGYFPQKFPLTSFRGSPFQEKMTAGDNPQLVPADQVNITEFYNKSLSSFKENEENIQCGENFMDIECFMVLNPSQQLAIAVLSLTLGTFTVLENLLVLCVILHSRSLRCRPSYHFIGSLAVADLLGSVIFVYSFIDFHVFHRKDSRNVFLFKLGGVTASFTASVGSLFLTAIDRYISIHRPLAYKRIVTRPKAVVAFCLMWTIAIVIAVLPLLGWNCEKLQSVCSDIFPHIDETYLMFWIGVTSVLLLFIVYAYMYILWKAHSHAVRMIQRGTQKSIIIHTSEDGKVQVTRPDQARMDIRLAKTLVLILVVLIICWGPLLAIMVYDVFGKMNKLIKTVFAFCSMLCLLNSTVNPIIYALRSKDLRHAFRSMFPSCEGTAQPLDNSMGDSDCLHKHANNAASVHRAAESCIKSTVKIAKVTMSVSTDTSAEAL

B1: M5-H1 humanized anti-CB1 antibody (antibody, human IgG1, kappa, L234A L235A, V domains shown)
VH: QVQLVQSGAEVVKPGASVKISCKASGYEFSYYWMNWVKQAPGQGHEWIGQIYPGDGDTNYNGKFKGKATLTADKSTSTAYMELSSLRSEDTAVYFCARGREAAWFAYWGQGTLVTVSS
VL: DIQLTQSPSSLSVSVGDRATITCRASQSVSSFRYSYLHWYQQKPGKAPKLLIKYASNLESGVPSRFSGSGSGTDFTLTISSVQPEDFATYFCQHSWEIPFTFGQGTKLEIKR
binding result [1]: binds

B2: M5-H2 humanized anti-CB1 antibody (antibody, human IgG1, kappa, L234A L235A, V domains shown)
VH: B1 VH with V12K, I20V, K38R, G62Q, K65Q, K67R, A68V, K74T
VL: B1 VL
binding result [1]: binds

B3: M7-H3 humanized anti-CB1 antibody (antibody, human IgG1, kappa, L234A L235A, V domains shown)
VH: QVQLVQSGAEVKKPGASVKVSCKASSYTFTRYWMNWVKQAPGQGLEWIGMIDPYDSETHYNQKFQGRATLTVDTSTSTVYMELSSLRSEDTAVYFCARSQPRYYAMDYWGQGTTVTVSS
VL: DIQMTQSPSSLSASLGDRVTLTCRASQEISGFLSWLQLKPGKTIKRLIYAASSLDSGVPSRFSGSWSGTDYTLTISSLQPEDFADYYCLQYSSYPYTFGGGTKLEIKR
binding result [1]: binds

B4: M7-H5 humanized anti-CB1 antibody (antibody, human IgG1, kappa, L234A L235A, V domains shown)
VH: B3 VH with K12V, V20L, Q65K, G66D, R67K, T69I, T74K, V79A, S85T, T114S
VL: B3 VL with K39R, G41D, K42G, S63R, P80S
binding result [2]: binds

B5: M7-H6 humanized anti-CB1 antibody (antibody, human IgG1, kappa, V domains shown)
VH: B3 VH with K38R, I48M, Q65K, G66D, A68V, L70M, V72R, F95Y, T114S
VL: DIQMTQSPSSLSASVGDRVTITCRASQEISGFLAWFQQKPGKAPKSLIYAASSLQSGVPSRFSGSGSGTDFTLTISSLQPEDFATYYCQQYSSYPYTFGGGTKLEIKR
binding result [2]: binds

B6: M7-H2 humanized anti-CB1 antibody (antibody, human IgG1, kappa, L234A L235A)
heavy: not shown
light: DIQMTQSPSSLSASVGDRVTLTCRASQEISGFLSWLQLKPGKAIKRLIYAASSLDSGVPSRFSGSWSGTDYTLTISSLQPEDFADYYCLQYSSYPYTFGGGTKVEIKRTVAAPSVFIFPPSDEQLKSGTASVVCLLNNFYPREAKVQWKVDNALQSGNSQESVTEQDSKDSTYSLSSTLTLSKADYEKHKVYACEVTHQGLSSPVTKSFNRGEC
binding result [1]: binds

B7: M8 mouse anti-huCB-1 antibody (antibody, V domains shown)
VH: QVQLQQPGAELVKPGASVKLSCKASGYTFTDYWMHWVKQRPGHGLEWIGEIYPSSGRANYNGNFKRKATLTVDKSSSTAYMQLSSLTSEDSAVYYCARSRGNYLPYWGHGTPVTVSA
VL: QIVLTQSPAIMSASLGERVTMTCTAGSTVSSSYLHWYQQRPGSSPKLWIYGTSNLASGVPARFSGSGSGTSYSLTISSMEAEDAATYYCHQYHRSPPTFGGGTKLEIK
Mean P-ERK (% inhibition) [3]: 64 % inhibition | Mean cAMP (% Amgen) [3]: 29 % Amgen | P-ERK IC50 (nM) Data Set 1 [3]: 36 nM | P-ERK IC50 (nM) Data Set 2 [3]: 47 nM | cAMP EC50 (nM) Data Set 1 [3]: 96 nM | cAMP EC50 (nM) Data Set 2 [3]: 190 nM | cAMP EC50 (nM) Data Set 3 [3]: 370 nM | EC50 [4]: 10.7 nM | binding result (mouse CB-1): no binding (tested: 200 nM)

B8: M7 mouse anti-huCB-1 antibody (antibody, V domains shown)
VH: EVQLQQPGAELVRPGASVKLSCKASSYTFTRYWMNWVKQRPEEGLEWIGMIDPYDSETHYNQKFKDKAILTVDKSSSTAYMQLSTLTSEDSAVYFCARSQPRYYAMDYWGQGTSVTVSS
VL: DIQMSQSPSSLSASLGERVSLTCRASQEISGFLSWLQLRPDGTIKRLIYAASSLDSGVPKRFRGSWSGSDYSLTISSLESEDFADYYCLQYSSYPYTFGGGTKLEIK
Mean P-ERK (% inhibition) [3]: 95 % inhibition | Mean cAMP (% Amgen) [3]: 61 % Amgen | P-ERK IC50 (nM) Data Set 1 [3]: 117 nM | P-ERK IC50 (nM) Data Set 2 [3]: 170 nM | cAMP EC50 (nM) Data Set 1 [3]: 78 nM | cAMP EC50 (nM) Data Set 2 [3]: 120 nM | cAMP EC50 (nM) Data Set 3 [3]: 120 nM | EC50 [4]: 13 nM | binding result (mouse CB-1): no binding (tested: 200 nM)

— patent publication US20220396620A1 (Takeda / Millennium, published 2022)
